Assay [1] concerns the target T1, HLA-A*01:01_… (HLA-PEPTIDE target G2), recombinant biotinylated complex (human, enzymatically biotinylated (BirA)).
T1 construct: also called G2-pHLA
Description: phage panning, scFv ELISA.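 Further: scFv binders from three to four bead panning rounds, tested as PPEs by ELISA on streptavidin plates carrying peptide-HLA complex (2 µg/ml), detected via anti-V5 and HRP anti-mouse.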 Background: ELISA stands for enzyme-linked immunosorbent assay.
Description: Phage library screening was carried out according to the overall screening design described above. Three to four rounds of bead-based panning were performed to identify scFv binders to each peptide-HLA complex. For each round of panning, an aliquot of starting phage was set aside for input titering and the remaining phage was depleted three times against Dynabead M-280 streptavidin beads (Life Technologies) followed by a depletion against Streptavidin beads pre-bound with 100 μmoles of pooled negative peptide-HLA complexes. For the first round of panning, 100 μmoles of peptide-HLA complex bound to streptavidin beads was incubated with depleted phage for 2 hours at room temperature with rotation. Three five-minute washes with 0.5% BSA in 1×PBST (PBS+0.05% Tween-20) followed by three five-minute washes with 0.5% BSA in 1×PBS were utilized to remove any unbound phage to the peptide-HLA complex bound beads. To elute the bound phage from the washed beads, 1 ml 0.1M TEA was added and incubated for 10 minutes at room temperature with rotation. The eluted phage was collected from the beads and neutralized with 0.5 ml 1M Tris-HCl pH 7.5. The neutralized phage was then used to infect log growth TG-1 cells (OD₆₀₀=0.5) and after an hour of infection at 37° C., cells were plated onto 2YT media with 100 μg/ml carbenicillin and 2% glucose (2YTCG) agar plates for output titer and bacterial growth for subsequent panning rounds.
96-well and/or 384-well streptavidin coated plates (Pierce) were coated with 2 μg/ml peptide-HLA complex in HLA buffer and incubated overnight at 4° C. Plates were washed three times between each step with PBST (PBS+0.05%). The antigen coated plates were blocked with 3% BSA in PBS (blocking buffer) for 1 hour at room temperature. After washing, scFv PPEs were added to the plates and incubated at room temperature for 1 hour. Following washing, mouse anti-v5 antibody (Invitrogen) in blocking buffer was added to detect scFv and incubated at room temperature for 1 hour. After washing, HRP-goat anti-mouse antibody (Jackson ImmunoResearch) was added and incubated at room temperature for 1 hour.

In assay [2] the target is T1, HLA-A*01:01_… (HLA-PEPTIDE target G2), …. Description: BLI, pHLA on sensor, Fab titrated, 1:1 model.
The target of assay [3] is HLA-A*02:01_… (HLA-PEPTIDE target G8), recombinant complex (human, enzymatically biotinylated (BirA) for screening and functional assays). Description: scFv PPE ELISA.

Broadly, the Kd is the constant that tells how readily two partners part at equilibrium. What is called koff is the rate constant with which the complex falls apart. Broadly, the kon is a measure of how fast the partners come together.

Changes are numbered by the printed parent chain.

B1: G2(2F01) scFv (scFv, V domains shown)
VH: QVQLVQSGAEVKKPGASVKVSCKASGYTFTSYYMHWVRQAPGQGLEWMGMINPRDDTTDYARDFQGRVTMTRDTSTSTVYMELSSLRSEDTAVYYCALSGNYYGMDVWGQGTTVTVSS
VL: DIQMTQSPSSLSASVGDRVTITCQASQDISNYLNWYQQKPGKAPKLLIYGASRLQSGVPSRFSGSGSGTDFTLTISSLQPEDFATYYCQEGITYTFGQGTKVEIK
As to B1, the binding result in assay [1] was “binds”.

B2: G2(1D06) scFv (scFv, V domains shown)
VH: QVQLVQSGAEVKKPGSSVKVSCKASGYTFTSQYMHWVRQAPGQGLEWMGRIIPLLGIVNYAQKFQGRVTITADESTSTAYMELSSLRSEDTAVYYCARDKNYYGMDVWGQGTTVTVSS
VL: EIVMTQSPATLSVSPGERATLSCRASQSVSRNLAWYQQKPGQAPRLLIYGASTRATGIPARFSGSGSGTEFTLTISSLQSEDFAVYYCQHYGYSPVTFGQGTKLEIK
On to B2, for which the binding result in assay [1] is “binds”.

B3: G2(2A10) scFv (scFv, V domains shown)
VH: EVQLLESGAEVKKPGASVKVSCKASGYSFTDYIVHWVRQAPGQGLEWMGWINPYSGGTKYAQKFQGRVTMTRDTSTSTVYMELSSLRSEDTAVYYCARVLQEGMDVWGQGTLVTVSS
VL: DIQMTQSPSSLSASVGDRVTITCRASQSISSYLNWYQQKPGKAPKLLIYGVSSLQSGVPSRFSGSGSGTDFTLTISSLQPEDFATYYCQQSYSNPTFGQGTKVEIK
For the molecule B3, in assay [1], the binding result is “binds”.

B4: G2(1H11) Fab (Fab, V domains shown)
VH: QVQLVQSGAEVKKPGASVKVSCKASGYTFTNYYMHWVRQAPGQGLEWMGMINPSGGGTSYAQKFQGRVTMTRDTSTSTVYMELSSLRSEDTAVYYCARGNPWELRLDYWGQGTLVTVSS
VL: DIQMTQSPSSLSASVGDRVTITCQASQDISNYLNWYQQKPGKAPKLLIYAASSLQSGVPSRFSGSGSGTDFTLTISSLQPEDFATYYCQQYYSYPFTFGPGTKVDIK
notes: Fab
As for B4, in assay [2], the Kd was 49.9 nM, the koff was 0.028 s⁻¹ and the kon came out at 581000 M⁻¹ s⁻¹.

B5: G8(1H08) scFv (scFv, V domains shown)
VH: QVQLVQSGAEVKKPGASVKVSCKASGYTFGNYFMHWVRQAPGQGLEWMGMVNPSGGSETFAQKFQGRVTMTRDTSTSTVYMELSSLRSEDTAVYYCAASTWIQPFDYWGQGTLVTVSS
VL: DIQMTQSPSSLSASVGDRVTITCRASQGINSYLAWYQQKPGKAPKLLIYDASNLETGVPSRFSGSGSGTDFTLTISSLQPEDFATYYCQQHNSYPPTFGQGTKLEIK
notes: also called G8-P1H08
For B5, the “fold selective binding to target pHLA over minipool of negative control pHLAs” value (shortened to “fold selective binding to target pHLA”) in assay [3] is ≥ 3 fold.

B6: G2(1B06) Fab (Fab, V domains shown)
VH: QVQLVQSGAEVKKPGASVKVSCKASGGTFSNYILSWVRQAPGQGLEWMGWINPDSGGTNYAQKFQGRVTMTRDTSTSTVYMELSSLRSEDTAVYYCARGSYGMDVWGQGTTVTVSS
VL: DIQMTQSPSSLSASVGDRVTITCRASQSISRWLAWYQQKPGKAPKLLIYAASSLQSGVPSRFSGSGSGTDFTLTISSLQPEDFATYYCQQSYSTPYTFGQGTKLEIK
notes: Fab
B6: in assay [2], the Kd was determined as 44.4 nM, the koff was determined as 0.0323 s⁻¹ and the kon was 1.06e+06 M⁻¹ s⁻¹.

B7: G8(1B03) scFv (scFv, V domains shown)
VH: EVQLLESGGGLVQPGGSLRLSCAASGFTFSDYYMSWVRQAPGKGLEWVSGINWNGGSTGYADSVKGRFTISRDNSKNTLYLQMNSLRAEDTAVYYCARVEQGYDIYYYYYMDVWGKGTTVTVSS
VL: B4 VL with Q24R, D28S, N31S, A50K, Q55E, Y91S, Y94A, F96Y
Turning to B7, the “fold selective binding to target pHLA” value in assay [3] was ≥ 3 fold.

B8: G8(1A04) scFv (scFv, V domains shown)
VH: QVQLVQSGAEVKKPGASVKVSCKASGYPFIGQYLHWVRQAPGQGLEWMGIINPSGDSATYAQKFQGRVTMTRDTSTSTVYMELSSLRSEDTAVYYCARDLSYYYGMDVWGQGTTVTVSS
VL: B4 VL with Q24W, D28G, N31S, N34A, Y91S, S93N, Y94T, F96W
On to B8, for which the “fold selective binding to target pHLA” value in assay [3] is ≥ 3 fold.

B9: G2(1H01) Fab (Fab, V domains shown)
VH: QVQLVQSGAEVKKPGASVKVSCKASGYTFTRYTINWVRQAPGQGLEWMGWINPNSGGTNYAQKFQGRVTMTRDTSTSTVYMELSSLRSEDTAVYYCARDFVGYDDWGQGTLVTVSS
VL: B6 VL with I29V, S30G, R31N, A50G, S56T, T94A, L104V
notes: Fab
In the case of B9, in assay [2], the Kd was found to be 15.5 nM, the koff was 0.0148 s⁻¹ and the kon amounted to 952000 M⁻¹ s⁻¹.

B10: G8(1D02) scFv (scFv, V domains shown)
VH: EVQLLESGGGLVQPGGSLRLSCAASGFTFSSYWMSWVRQAPGKGLEWVSSISGRGDNTYYADSVKGRFTISRDNSKNTLYLQMNSLRAEDTAVYYCARASGSGYYYYYGMDVWGQGTTVTVSS
VL: B4 VL with Y91S, Y94A, F96Y, P100G, D105E
Turning to B10, in assay [3], the “fold selective binding to target pHLA” value was ≥ 3 fold.

B11: G2(1C06) scFv (scFv, V domains shown)
VH: QVQLVQSGAEVKKPGASVKVSCKASGYTFTDYQMFWVRQAPGQGLEWMGWINPNSGGTNYAQKFQGRVTMTRDTSTSTVYMELSSLRSEDTAVYYCAKGGGGYGMDVWGQGTTVTVSS
VL: B6 VL with S28G, R31N, W32Y, T94D, P95Q, Y96W, L104V
In the case of B11, in assay [1], the binding result is reported as “binds”.

B12: G2(2A11) Fab (Fab, V domains shown)
VH: EVQLLESGAEVKKPGASVKVSCKASGYTFTTYDLAWVRQAPGQGLEWMGWINPNSGGTNYAQKFQGRVTMTRDTSTSTVYMELSSLRSEDTAVYYCARANWLDYWGQGTLVTVSS
VL: B6 VL with S28D, S53R, S56A, T97S
notes: Fab
Turning to B12, in assay [2], the dissociation constant Kd came out at 28.1 nM, the koff came to 0.0172 s⁻¹ and the kon was 633000 M⁻¹ s⁻¹.

B13: G2(1E03) scFv (scFv, V domains shown)
VH: QVQLVQSGAEVKKPGASVKVSCKASGYTFTGYYMHWVRQAPGQGLEWMGWMNPNSGNTGYAQKFQGRVTMTRDTSTSTVYMELSSLRSEDTAVYYCATYDDGMDVWGQGTTVTVSS
VL: B6 VL with R31H, W32Y, A34N, A50G, S93T, Y96W, K103R
Take B13: in assay [1], the binding result is reported as “binds”.

B14: G8(1A06) scFv (scFv, V domains shown)
VH: QVQLVQSGAEVKKPGASVKVSCKASGYTFTNYYMHWVRQAPGQGLEWMGWMNPIGGGTGYAQKFQGRVTMTRDTSTSTVYMELSSLRSEDTAVYYCARVYDFWSVLSGFDIWGQGTLVTVSS
VL: B6 VL with S28A, R31N, W32S, S53T, Q89G, Y96P
For B14, the “fold selective binding to target pHLA” value in assay [3] was ≥ 3 fold.

B15: G2(2D04) scFv (scFv, V domains shown)
VH: QVQLVQSGAEVKKPGASVKVSCKASGYTFSNFLINWVRQAPGQGLEWMGWINPNSGGTNYAQKFQGRVTMTRDTSTSTVYMELSSLRSEDTAVYYCASERELPFDIWGQGTMVTVSS
VL: B6 VL with R31S, L33V, A50G, S53N, Q55E, T97S
Regarding B15, in assay [1], the binding result is on record as “binds”.

B16: G8(1C11) scFv (scFv, V domains shown)
VH: QVQLVQSGAEVKKPGASVKVSCKASGGTLSSYPINWVRQAPGQGLEWMGWISTYSGHADYAQKLQGRVTMTRDTSTSTVYMELSSLRSEDTAVYYCARSYDYGDYLNFDYWGQGTLVTVSS
VL: B4 VL with Y91S, Y94I, F96P, P100G
Regarding B16, the “fold selective binding to target pHLA” value in assay [3] is ≥ 3 fold.

B17: G2(1B12) Fab (Fab, V domains shown)
VH: B9 VH with R31S, T33G, N35T, F100Y, V101G, G102D, Y103L, D105Y
VL: B6 VL with S28N, S30G, R31N, S53T, S56T, T94A, T97S
notes: Fab
With B17, in assay [2], the Kd came to 22.8 nM, the koff was determined as 0.00728 s⁻¹ and the kon was determined as 366000 M⁻¹ s⁻¹.

B18: G2(1B08) scFv (scFv, V domains shown)
VH: QVQLVQSGAEVKKPGASVKVSCKASGYTFTNYHMHWVRQAPGQGLEWMGWIHPDSGGTSYAQKFQGRVTMTRDTSTSTVYMELSSLRSEDTAVYYCARNWNLDYWGQGTLVTVSS
VL: B6 VL with R31N, D70Y, T94S
Regarding B18, the binding result in assay [1] is “binds”.

B19: G2(2A09) scFv (scFv, V domains shown)
VH: QVQLVQSGAEVKKPGASVKVSCKASGGTFSSYAISWVRQAPGQGLEWMGWINPNSGGTNYAQKFQGRVTMTRDTSTSTVYMELSSLRSEDTAVYYCAAMGIAVAGGMDVWGQGTLVTVSS
VL: B6 VL with S93L, T94P, T97S, L104V
On to B19, for which the binding result in assay [1] is “binds”.

B20: G2(2A03) Fab (Fab, V domains shown)
VH: QVQLVQSGAEVKKPGASVKVSCKASGYTFTSYTVNWVRQAPGQGLEWMGWINPNSGGTKYAQNFQGRVTMTRDTSTSTVYMELSSLRSEDTAVYYCARGGGGALDYWGQGTLVTVSS
VL: B6 VL with R31S, S53T, S93L, T94P, T97S
notes: Fab
As to B20, in assay [2], the Kd worked out at 109 nM, the koff turned out to be 0.036 s⁻¹ and the kon worked out at 332000 M⁻¹ s⁻¹.

B21: G8(1A03) scFv (scFv, V domains shown)
VH: QVQLVQSGAEVKKPGASVKVSCKASGGTFSRSAITWVRQAPGQGLEWMGWINPNSGATNYAQKFQGRVTMTRDTSTSTVYMELSSLRSEDTAVYYCARDDYGDYVAYFQHWGQGTLVTVSS
VL: DIQMTQSPSSLSASVGDRVTITCRASQSITSYLNWYQQKPGKAPKLLIYDASNLETGVPSRFSGSGSGTDFTLTISSLQPEDFATYYCQQNYNSVTFGQGTKLEIK
Turning to B21, the “fold selective binding to target pHLA” value in assay [3] is ≥ 3 fold.

(Values after patent US20240059797A1 (GRITSTONE BIO, published 2024).)
